Data on 20 sequences can be found in the DeepSol protein solubility set.

The data set can be described thus: soluble on expression in E. coli; label from the status in PepcDB or PDB records.
Regarding “MSATVKPYQEMESGKREQVELMFNNISPKYDLLNRVLSLGIDKIWRKQALNLLKQDKPAHILDVATGTADLAIEAATRLKPTSVVGIDIAEDMLQIGRGKIAKKNLDKIIRLEKGDSEKINFPDNTFDAVIVSFGVRNFEHLEIGLAEIHRVLKPAGSIMVLEFSKPQNAPFKQVYQFYFKNILPTVGKLISKDSAAYTYLPDSVNAFPDGKAFCSILEKTGFTIKHYKPYTFGVCTAYVGKKLEHHHHHH”, the “soluble on expression in E. coli” value is on record as “not soluble”.
Take “MSLNCKQRRYMKILIVDDNEQYRKLLSAIFVDRGWEAIDAPEGNKGMELLREHIPDVILSDIMMPRMDGFQFLRALRTSAFGDIIFIFYTSTYTKASHRDFALSLGADAYIAKPLDPEDIVQALMDILDRKELREGHHHHHH”: the “soluble on expression in E. coli” value was “not soluble”.
For “MVEISKRIISTFGKTNAHFKLITENDRVLVGLSGGKDSLLLATLLARLARHAPFKFEFKALTVDYGIGEDFSYLQNYCAENGIPHEVFKTNIMEVMQEKRRENSSYCSFCSRLRRGALYSKALEGGYNKLALGHHLDDAAESFFMNFSYNGAIRSMPPIYRAYNGLWVIRPLIWLRERQMVDFVLKNNLQTPLCNC”, the “soluble on expression in E. coli” value is recorded as “not soluble”.
With “MKIIGFACQWCAYQAADLAGSLKMKYPESIRLLRVPCSGRVNAEFILKALLSGADGVFVAGCPISECHYRSGNRIAKTKVALLKRLLPEFGLESGRVEFLQVSSADARKFVEFAKEFDERIRKLGPNPLRRDER” the entry was “not soluble”; with “MGSDKIHHHHHHMLFFINLTLKRGLTTLLENANATINPGQKVGLVGKNGCGKSSLFALLKNEMSAEGGEMSFPPNWALAWVNQETPSLDCRAIDYVIQGDREYSRLQQVLQQANTANDGNAIAVLHNQLDAIDAWTIEARAGELLHGLGFTQAELEQPVKAFSGGWRMRLNLAQALICRSDLLLLDEPTNHLDLDAVIWLERWLKQYPGTLILISHDRDFLDPIVGKILHIEQQKLNEYTGDYSSFEQQRATKLAQQNAMYRQQQLKIDHLQRYIDRFKAKATKAKQAQSRIKALERMEKIAPAYVDNPFHFEFREPLSLPNPLLMMENASVGYGEGEKSAVEILSKIKLNLVPGSRIGLLGKNGAGKSTLIKLLAGEIAPTGGTIQLAKGVQLGYFVQHQLDTLRADESALWHLQKIAPQQTEQQLRDYLGGFAFHGDKVNQPVASFSGGEKARLVLALIVWQRPNLLLLDEPTNHLDFRYASGVNGSLGGLSGLFGVGVARSPFIA”, “not soluble”; with “MAHHHHHHMNINKILFSKVGEVVKNGNGGMNMQQGASQLLSGKKLIYISKPTHGGFIYWKCRELIHTIKKKTKRCARYLDINHDFSRAALVGVPKTSYDPKNNIFYIQMDNEEWAGNFYKNGPSGVLMWGVMFFAKVCKMGKNALHTIRAAPFGRFAE”, “not soluble”.
Then “MGSDKIHHHHHHMSSEKLRVAAIDLGTNSFHMVIVEESEEKGIVEIDRVKDMICIGRGSISTKRLDDGAMEAGVATLRNFIVLATQRGVALHNILAFATSAIREADNRDEFIDMVRRETGLKIRVITGKEEAQFIYYGVRNAVTLRDKPDLLFDIGGGSVEFIIADKSKVHLLESRKIGVARMLERFVTTDPVSAHELHLLQQFFAAEMYGGAAEMAHELGVSRAIASSGTAQNIARMIRLGKHADGADVLNQSSFTRQEFESFYRQVIAMDASARRKLTGLDEKRVDLIVPGLILFDTIFRVFGIKDVVISDSALREGMVLHQIALIRGRDGSSQLDIRRQSVMELGYRCNWHKPHSEQVARLALMLFDELHPLHGLKERYRELLEYAAMLHNIGEFISISAHHKHSQYIIMNADLRGFSPTEIDIIGNVARYHRKQPPTERHPLYSQLKPSHRRVVDVLSGILRIANGLERGHRQNVQSITARIDQERIVLEALTQFEPDIELWAACGLKEWLEEVLGKPILIEARVR”, with “not soluble”; and “MGSDKIHHHHHHMTTRQPKTEADVLAETANLILDKYFHNQKNICTYDKIELARMLGLAEDNKKSDYALFHFIKALRYVVLGNFNEAINSYEATLRIPNSHAGILSNYATTLIILGELEQAKEMLIKCLNETDDGVSNLEYFANIIELYLLSTLDETLLQHAGNMKDSTLDKYSNILKLKTDINKIDISIQDYQEFTGVLIKFIFDKTRQIYQPRFSIDNGLDRQLNIEAFLNINPEEASYLNTEFRNQYLDYIFDNERHDLLGKFVVFFRQNKNREDGTEKPKAFYLGTNRELEA”, with “not soluble”.
With “MRILIPFKANNPKSRLSSILSEEERKELARLMLLDVIDAAKPFGEIKVVCPSELDVEGVEVVVDTSDLNTTVNKVMDEAPLAVIMSDLPLLSEEVLKRFFETEGDVVVAPGRKGGTNMLLVRKRGFRVSYHFGSFFKHLEMARKMGMKAKIFDSFYSSVDIDDESDLLELMMHGSGKKSYEFLRKIGFSVSFEETPRLERRVFMQP” the entry was “soluble”; with “MAHHHHHHMSLVKMKERDEKAREEAEKLLNEVIEQSQGKMYKPTAAAGVGVNTQPHNRRMRVETLRSTPDYIFKIILVGDSYVGKTRFLKNLVGAIGFGDQCVTTLSVDVVNHYVIVDGKTVQVLMYDTCGQERFRAMTAQFYRDAHGAIMVYDTTQIGSFDNIEVWFSQLNSFGCENTSKILVGNKCDLPERRAVEIGRARALADKLGVPFIETSAMTGAGVAVAVEALVRMIMRQQPVPLASQWAGSKSGHRNAVNLERPRRENGTGRRSERSQRNDNCCCQ”, “soluble”; with “MSSHESLFDYEATLQACARGEKQALQRLYLQESARLLGVAQRLVRDSALAEDIVHDAFLKIWTHAASFDASRGSARGWIFSVTRHLALNTLRNTAREVRVEDDGSDDHHEQATLEGWQETGDAFDWRVNPGRMISCMEQLEPVRRNCIFHAYVDGYSHQEIAQKIGAPLGTVKAWIKRSLTALRECMG”, “not soluble”.
As for “MGSDKIHHHHHHMQLDKYTAKKIVKRAMKIIHHSVNVMDHDGVIIASGNSTRLNQRHTGAVLALRENRVVEIDQALAQKWNFEAQPGINLPIHYLGKNIGVVGISGEPTQVKQYAELVKMTAELIVEQQALLEQESWHRRYKEEFILQLLHCNLNWKEMEQQAKFFSFDLNKSRVVVLIKLLNPALDNLQNLINYLEQSEFAQDVAILSLDQVVVLKTWQNSTVLSAQMKTLLPADYSKQDYKIAVGACLNLPLFEQLPLSFQSAQSTLSYGLKHHPRKGIYVFDEHRLPVLLAGLSHSWQGNELIKPLSPLFSEENAILYKTLQQYFLSNCDLYLTAEKLFVHPNTLRYRLNKIEQITGLFFNKIDDKLTLYLGTLLEH”, the “soluble on expression in E. coli” value is on record as “not soluble”.
With “MRNQELARIFEEIGLMSEFLGDNPFRVRAYHQAARTLYDLDTPIEEIAEKGKEALMELPGVGPDLAEKILEFLRTGKVRKHEELSRKVPRGVLEVMEVPGVGPKTARLLYEGLGIDSLEKLKAALDRGDLTRLKGFGPKRAERIREGLALAQAAGKRRPLGAVLSLARSLLEAIRALPGVERAELCGSARRYKDTVGDLDFLVASREGERAVEGFVRLPQVKEVYAKGKERATVFLKNGLQVDLRVVPPESYGAGLQYLTGSKAHSIRLRALAQEKGLKLSEYGVFRGEKRIAGETEEEVYAALGLPWIPPPLREDQGEVEAALEGRLPKLLELPQVKGDLQVHSTYSDGQNTLEELWEAAKTMGYRYLAVTDHSPAVRVAGGPSPEEALKRVGEIRRFNETHGPPYLLAGAEVDIHPDGTLDYPDWVLRELDLVLVSVHSRFNLPKADQTKRLLKALENPFVHVLAHPTARLLGRRAPIEADWEAVFQKAKEKGVAVEIDGYYDRMDLPDDLARMAYGMGLWISLSTDAHQTDHLRFMELAVGTAQRAWIGPERVLNTLDYEDLLSWLKARRGV” the entry was “soluble”.
Consider “MDCHKLRRLLKKEEGPKLDFKAEYDLSTESGKKELTKDVIAIANSRGGRGYIILGIEDKTKRVLGIEPKRYTEEQIQQIIYNRCDPPVPISVDFVGLDGKTVGVITVYRSSHKPHQMIQNGAFYIRRGSTTDIARRSEIANLFQENGLMTYETVILKNVGMEELDFGLIKDYFKTLNVFSDNPSELILEALGIIGQKSDTEEYHPTIGGLLLFGKNPSLYLPHVYVKVVYNGEARLFFGNILKMLDDVSDYMRSIIKVEGYPFNALEEVIANALVHRDYLDVSKGIVITVTDKNIEISNPGALIAGNSVYSFSREINPDRRNPWLYQRLLTLDPKKRFMKSGVGLKRVKKSFTGIGPVKFINIGSQNLFKVLLPIGKKQESTSDTSGLF”, for which the “soluble on expression in E. coli” value is recorded as “soluble”.
Then “ANIIANTSLTIGPSKLDVAKITPELLASLNEVGGSEANVATGYHAIEFLLWGQDLNGTNAGAGKRAYTDFVVGSGCTNGHCDRRGEYLKAAADLLVQDLEWMEKQWSADEKGNYRQELLTGSAENGLRKMLFGMGSLSLGELAGERMKVALEANSTEDEHDCFSDNTHNSHYYNEQGIYNVYTGTYSRQDGTVLTGPSIANLVAQEDKKAAEEIQKQFDATRSQVGELVTSAEKHNQHFDQLIAAGNAQGNALVNDTIMALVAQTGAIERAAGIVGIDSLSPDTADHEF”, with “not soluble”; and “MESNEDVERLLCQKYPGLAAELQPSGACIIRGVLGSEDTWRRLKLYLPHHPALHGFQLYVQESLEYKLYTSANLKLQDDWLLEDFLDHLPKILPAQKAPTVPKELCREGNIYYDILALYKSNEYCLQVDEACSMIRFSEFTDFEQHYLELKIPSLLLLDHSLPDCVSLGEMLTKSAGNLEEALNLFRKLLEDLRPFYDNFMDIDELCHVLQPSPISSKHKTRLFPLKDRVYLKLTIADPFACIASMSLKIIGPTEEVARLRHVLSDGLSNWDSEMNIHKNLLRMFDLCYFPMPDWSDGPKLDEEDNEELRCNICFAYRLDGGEVPLVSCDNAKCVLKCHAVCLEEWFKTLMDGKTFLEVSFGQCPFCKAKLSTSFAALLND”, with “soluble”; and “MPQFTTARRARHRAEQMFALVADVEKYPQFLPMCEALSIRSRKERDGKTLLIADMTVGYKLIRETFTSQVLLKPDENIIDVKYIDGPFRYLDNRWTFRPTDGGAQCDVEFFIDYEFKSRTLGLLMGTMFDLAFKKFSEAFEKRADQIYGLGELEHHHHHH”, with “soluble”.
With “MSSDVRFTDFKSDKQPTWCPGCGDFGTMNGMMKALAETGNDPDNTFIVAGIGCSGKIGTYMHSYALHGVHGRALPVGIGVKMANPDLEVMVSGGDGDGYSIGAGHFIHAVRRNVDMSYVVMDNRIYGLTKGQASPTSREDFETSTSPDGPNQPPVNPKALALASGATFIAQSFSSNAQRHAEIVQKAVEHDGFGFVNVYSPCVTFNDVDTYDYFRDAIVDLDETDHDPADRDQAKDKILESEKEYMGVLYQDEDSVPFEEREGVEGSMAEIPDGAPEGAMDLVREFY” the entry was “not soluble”; with “MGSDKIHHHHHHMQPELSEFLRQHRITEVEAIIPDMAGIARGKIIPRNKFESGESMRLPQAVMVQTVTGDYPEDGTLTGVTDPDMVCVPDPSTICLVPWAVDPTAQVIHDCVHFDGSPVEISPRYVLRRVLDLYKAKGWQPVVAPELEFYLVDMNADPDLPLRPPIGRTGRAETGRQSYSIEAVNEFDPLFEDIYEYCEMQGLDIETLIHEVGAAQMEINFVHGDALSLADQVFLFKRTVREAALRHNMYATFMAKPMEGEPGSAMHIHQSLADVHTGRNLFAEEGGVVSPMFHSYLAGLQKYTPALMPIFAPYINSYRRLSRFMAAPINVQWGYDNRTVGFRIPQSTPVARRIENRIPGVDCNPYLAFAATLAAGYLGLTQQLAPTEPIASDGYDLPYQLPRNLEEGISLMAACTPLAGILGDKFVKAYLALKETEYEAFFRVISSWERRHLLLHV”, “not soluble”.
Then “MSLSQCQTLLSQINRRIESYENIPVFSFAQKLPLFDSNSTKLKLNSQTNEMMMELLSLVEQNKGKKILIVGHSDNTGSSSMNMTLSEQRALALRDWLIKRSDITVDNFITKGMGASEPVATNHTEAGREQNRRVEVLILPTQDRTRMTEPKPLEGHHHHHH”, with “soluble”.
